The text below walks through data of article PMC5314460 (Structure (London, England : 1993), 2017).

Common to all, as to assay: pull-down
One experiment has as its target T1, SUMO-Rps3 (yeast, UniProt P05750 1-240).
T1 sequence: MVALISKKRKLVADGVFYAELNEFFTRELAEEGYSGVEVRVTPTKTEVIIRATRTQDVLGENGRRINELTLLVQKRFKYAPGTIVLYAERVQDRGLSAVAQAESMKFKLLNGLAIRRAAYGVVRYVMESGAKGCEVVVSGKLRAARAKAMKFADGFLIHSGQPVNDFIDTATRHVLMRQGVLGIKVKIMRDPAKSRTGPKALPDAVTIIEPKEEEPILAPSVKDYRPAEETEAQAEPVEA

Experiment [1] deals with T2, Enp1-TPR (residues 154-483) (yeast, UniProt P38333 154-483).
T2 sequence (looked up): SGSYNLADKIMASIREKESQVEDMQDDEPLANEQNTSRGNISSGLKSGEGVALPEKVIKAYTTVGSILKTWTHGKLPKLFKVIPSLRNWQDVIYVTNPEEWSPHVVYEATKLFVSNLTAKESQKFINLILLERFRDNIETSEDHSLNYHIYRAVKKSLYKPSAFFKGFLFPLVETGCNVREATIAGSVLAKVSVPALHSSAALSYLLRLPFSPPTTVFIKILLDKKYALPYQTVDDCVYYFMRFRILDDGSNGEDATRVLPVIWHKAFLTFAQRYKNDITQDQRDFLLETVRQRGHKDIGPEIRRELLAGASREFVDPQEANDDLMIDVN

Another experiment has as its target T3, Enp1 (yeast, UniProt P38333 1-483).
T3 sequence (looked up): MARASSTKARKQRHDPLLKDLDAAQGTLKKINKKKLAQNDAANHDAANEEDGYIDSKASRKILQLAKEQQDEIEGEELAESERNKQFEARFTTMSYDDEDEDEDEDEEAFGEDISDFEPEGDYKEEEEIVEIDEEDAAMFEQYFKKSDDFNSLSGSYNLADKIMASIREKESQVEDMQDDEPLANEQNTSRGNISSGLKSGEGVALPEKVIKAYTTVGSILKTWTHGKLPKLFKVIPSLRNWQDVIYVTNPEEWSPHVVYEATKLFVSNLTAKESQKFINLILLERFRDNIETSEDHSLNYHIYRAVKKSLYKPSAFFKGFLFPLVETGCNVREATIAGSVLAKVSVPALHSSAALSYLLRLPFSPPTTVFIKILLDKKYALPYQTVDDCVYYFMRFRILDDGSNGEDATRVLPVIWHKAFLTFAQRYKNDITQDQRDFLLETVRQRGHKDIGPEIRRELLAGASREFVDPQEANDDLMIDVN

B1: Ltv1-M (residues 185-394) (domain or fragment, yeast, UniProt P34078 185-394, looked up)
chain: DDVVVEDISKKTQLQGDNYGEEEKEDDIFAQLLGSGEAKDEDEFEDEFDEWDIDNVENFEDENYVKEMAQFDNIENLEDLENIDYQADVRRFQKDNSILEKHNSDDEFSNAGLDSVNPSEEEDVLGELPSIQDKSKTGKKKRKSRQKKGAMSDVSGFSMSSSAIARTETMTVLDDQYDQIINGYENYEEELEEDEEQNYQPFDMSAERSD
In the case of B1, the binding result (with SUMO-Rps3; in experiment [1]; with Enp1) was “binds” in each case.

B2: Ltv1-N (N-terminal 180 residues) (domain or fragment, yeast, UniProt P34078 1-180, looked up)
chain: MSKKFSSKNSQRYVVVHRPHDDPSFYDTDASAHVLVPVSNPNKTSPEADLRKKDVSSTKPKGRRAHVGEAALYGINFDDSEYDYTQHLKPIGLDPENSIFIASKGNEQKVEKKNIEDLFIEPKYRRDEIEKDDALPVFQRGMAKPEYLLHQQDTTDEIRGFKPDMNPALREVLEALEDEA
Take B2: the binding result with SUMO-Rps3 is “binds”.
